Results on 2 proteins are retold here after paper PMC3056663, “A Bi-Functional Anti-Thrombosis Protein Containing Both Direct-Acting Fibrin(ogen)olytic and Plasminogen-Activating Activities” (PLoS ONE, 2011).

Substrate in this data set: N=C(N)NCCC[C@H](NC(=O)c1ccccc1)C(=O)Nc1ccc([N+](=O)[O-])cc1
In words: purified protein. The note with it: 50 mM Tris-HCl, pH 7.8, 37°C. Type of data set: biochemical, Eupolyphaga sinensis.

B1: native eupolytin1 (NE) (Eupolyphaga sinensis) (protein)
chain: RIVGGSDANIEDLPYQLSFEYGGSHMCGASIISENWVVTAAHCVDGVSASSARFRAGSSVRGSGGSLHQATQLIANPQYDYYTIDYDVAVARVATPFSYGSGVQPISLISVEPSAGQTATVSGWGTFFSGGSLPRQLQVVSVPIVSPQQCNNDYASYGGITENMICAAEEQGGKDPCQGDSSGPLTVGGQLAGIVSWGAGCAQRGYPGVYSNVATLRKFITDETGVN
notes: mature protein of 227 residues, 27-residue signal peptide removed (precursor 254); purified natively from mid-gut; 26 kDa on SDS-PAGE
Turning to B1, the Km turned out to be 3.24 mM, the Vmax came to 63000 µM/min and the catalytic efficiency (kcat/Km) worked out at 1e+07 M⁻¹ s⁻¹.

B2: recombinant eupolytin1 (RE) (Eupolyphaga sinensis) (protein)
chain: IVGGSDANIEDLPYQLSFEYGGSHMCGASIISENWVVTAAHCVDGVSASSARFRAGSSVRGSGGSLHQATQLIANPQYDYYTIDYDVAVARVATPFSYGSGVQPISLISVEPSAGQTATVSGWGTFFSGGSLPRQLQVVSVPIVSPQQCNNDYASYGGITENMICAAEEQGGKDPCQGDSSGPLTVGGQLAGIVSWGAGCAQRGYPGVYSNVATLRKFITDETGVN
notes: tag released by enterokinase; primer encodes DDDDK-IVGG at the cleavage site; Mono Q purified
For B2, the Km came out at 3.01 mM, the maximum rate (Vmax) turned out to be 67200 µM/min and the kcat/Km amounted to 8e+06 M⁻¹ s⁻¹.

Usually Km stands for the substrate concentration at which the rate is half of its maximum. By Vmax is commonly meant the top rate of the reaction or transport when substrate is in excess. A word on the kcat/Km: it is the turnover number divided by the Michaelis constant.
